Assay results from patent US20160272683A1 (Novo Nordisk, published 2016).
Numbered stars: 1 amine (or outer) side, 2 acyl side, 3 side chain; on linkers, the order of the positions; unused ones are H or OH. * marks the point of attachment. C20 diacid = O=C(O)CCCCCCCCCCCCCCCCCCC(=O)*; γGlu = O=C(O)[C@H](CCC(=O)[*:2])N[*:1]

T1: human calcitonin receptor (human, UniProt P30988 25-474)
T1 construct: whole, on cells; also called hCT-R; hCTR
T1 sequence (looked up): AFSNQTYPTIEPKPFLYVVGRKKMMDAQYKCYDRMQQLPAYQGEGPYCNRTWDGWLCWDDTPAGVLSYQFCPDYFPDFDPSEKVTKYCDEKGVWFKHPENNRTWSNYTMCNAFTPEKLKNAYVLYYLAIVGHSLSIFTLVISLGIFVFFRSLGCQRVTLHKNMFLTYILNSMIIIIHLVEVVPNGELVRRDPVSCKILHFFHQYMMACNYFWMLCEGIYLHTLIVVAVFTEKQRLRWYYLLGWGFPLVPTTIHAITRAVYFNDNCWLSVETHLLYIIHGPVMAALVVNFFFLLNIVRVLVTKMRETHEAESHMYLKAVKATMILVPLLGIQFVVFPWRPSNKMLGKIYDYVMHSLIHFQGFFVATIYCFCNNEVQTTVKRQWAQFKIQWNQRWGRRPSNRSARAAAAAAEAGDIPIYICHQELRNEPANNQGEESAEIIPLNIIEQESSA


These binders were tested against T1, human calcitonin receptor (assay: whole-cell competition vs 125I-human calcitonin (Assay VIIa)).
Outline: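 BHK tk'ts 13 cells stably co-expressing human calcitonin receptor and a CRE-luciferase reporter, seeded overnight at 37 °C. Bound tracer counted by scintillation after cold HBSS washes and NaOH/SDS lysis; IC₅₀ from one-site competition fit taken as receptor affinity.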

Binder | IC50
{C20 diacid-γGlu}-ASELSTAALGRLSAELHELATYPRTETGSGSP-NH2 (SMILES CC(C)C[C@H](NC(=O)[C@H](C)NC(=O)[C@H](C)NC(=O)[C@@H](NC(=O)[C@H](CO)NC(=O)[C@H](CC(C)C)NC(=O)[C@H](CCC(=O)O)NC(=O)[C@H](CO)NC(=O)[C@H](C)NC(=O)CC[C@H](NC(=O)CCCCCCCCCCCCCCCCCCC(=O)O)C(=O)O)[C@@H](C)O)C(=O)NCC(=O)N[C@@H](CCCNC(=N)N)C(=O)N[C@@H](CC(C)C)C(=O)N[C@@H](CO)C(=O)N[C@@H](C)C(=O)N[C@@H](CCC(=O)O)C(=O)N[C@@H](CC(C)C)C(=O)N[C@@H](Cc1c[nH]cn1)C(=O)N[C@@H](CCC(=O)O)C(=O)N[C@@H](CC(C)C)C(=O)N[C@@H](C)C(=O)N[C@H](C(=O)N[C@@H](Cc1ccc(O)cc1)C(=O)N1CCC[C@H]1C(=O)N[C@@H](CCCNC(=N)N)C(=O)N[C@H](C(=O)N[C@@H](CCC(=O)O)C(=O)N[C@H](C(=O)NCC(=O)N[C@@H](CO)C(=O)NCC(=O)N[C@@H](CO)C(=O)N1CCC[C@H]1C(N)=O)[C@@H](C)O)[C@@H](C)O)[C@@H](C)O, also called Ex. #56) [[N-terminal(C20 diacid-gGlu), des1, 23Y, 30S, 31G]mimylin] | 2.94 nM
{C20 diacid-γGlu}-ASELSTAALGHLSAELHELATLPRTETGSGSP-NH2 (also called Ex. #72) [[N-terminal(C20 diacid-gGlu), des1, 12H, 30S, 31G]mimylin] | 0.438 nM
{C20 diacid-γGlu}-ASELSTAALGRLSAELHELSTYPRTETGSGSY-NH2 (SMILES CC(C)C[C@H](NC(=O)[C@H](C)NC(=O)[C@H](C)NC(=O)[C@@H](NC(=O)[C@H](CO)NC(=O)[C@H](CC(C)C)NC(=O)[C@H](CCC(=O)O)NC(=O)[C@H](CO)NC(=O)[C@H](C)NC(=O)CC[C@H](NC(=O)CCCCCCCCCCCCCCCCCCC(=O)O)C(=O)O)[C@@H](C)O)C(=O)NCC(=O)N[C@@H](CCCNC(=N)N)C(=O)N[C@@H](CC(C)C)C(=O)N[C@@H](CO)C(=O)N[C@@H](C)C(=O)N[C@@H](CCC(=O)O)C(=O)N[C@@H](CC(C)C)C(=O)N[C@@H](Cc1c[nH]cn1)C(=O)N[C@@H](CCC(=O)O)C(=O)N[C@@H](CC(C)C)C(=O)N[C@@H](CO)C(=O)N[C@H](C(=O)N[C@@H](Cc1ccc(O)cc1)C(=O)N1CCC[C@H]1C(=O)N[C@@H](CCCNC(=N)N)C(=O)N[C@H](C(=O)N[C@@H](CCC(=O)O)C(=O)N[C@H](C(=O)NCC(=O)N[C@@H](CO)C(=O)NCC(=O)N[C@@H](CO)C(=O)N[C@@H](Cc1ccc(O)cc1)C(N)=O)[C@@H](C)O)[C@@H](C)O)[C@@H](C)O, also called Ex. #97) [[N-terminal(C20 diacid-gGlu), des1, 21S, 23Y, 30S, 31G, 33Y]mimylin] | 0.307 nM
{C20 diacid-γGlu}-ASELSTAALGRLSAELHELATYPRTETGSGSY-OH (also called Ex. #88) [[N-terminal(C20 diacid-gGlu), des1, 23Y, 30S, 31G, 33Y, C-terminal(-)]mimylin] | 24.2 nM
{C20 diacid-γGlu}-ASELSTAALGHLSAELHELATLPHTETGTGTP-NH2 (SMILES CC(C)C[C@H](NC(=O)[C@H](C)NC(=O)[C@H](C)NC(=O)[C@@H](NC(=O)[C@H](CO)NC(=O)[C@H](CC(C)C)NC(=O)[C@H](CCC(=O)O)NC(=O)[C@H](CO)NC(=O)[C@H](C)NC(=O)CC[C@H](NC(=O)CCCCCCCCCCCCCCCCCCC(=O)O)C(=O)O)[C@@H](C)O)C(=O)NCC(=O)N[C@@H](Cc1c[nH]cn1)C(=O)N[C@@H](CC(C)C)C(=O)N[C@@H](CO)C(=O)N[C@@H](C)C(=O)N[C@@H](CCC(=O)O)C(=O)N[C@@H](CC(C)C)C(=O)N[C@@H](Cc1c[nH]cn1)C(=O)N[C@@H](CCC(=O)O)C(=O)N[C@@H](CC(C)C)C(=O)N[C@@H](C)C(=O)N[C@H](C(=O)N[C@@H](CC(C)C)C(=O)N1CCC[C@H]1C(=O)N[C@@H](Cc1c[nH]cn1)C(=O)N[C@H](C(=O)N[C@@H](CCC(=O)O)C(=O)N[C@H](C(=O)NCC(=O)N[C@H](C(=O)NCC(=O)N[C@H](C(=O)N1CCC[C@H]1C(N)=O)[C@@H](C)O)[C@@H](C)O)[C@@H](C)O)[C@@H](C)O)[C@@H](C)O, also called Ex. #93) [[N-terminal(C20 diacid-gGlu), des1, 12H, 25H, 30T, 31G, 32T]mimylin] | 1.03 nM

The remaining binders from weak to strong by IC50, led by results:

IC50 | Binder
4.93 nM | {C20 diacid-γGlu}-ASELSTAALGRLSAELHELATYPRTETGSGAP-NH2 (SMILES CC(C)C[C@H](NC(=O)[C@H](C)NC(=O)[C@H](C)NC(=O)[C@@H](NC(=O)[C@H](CO)NC(=O)[C@H](CC(C)C)NC(=O)[C@H](CCC(=O)O)NC(=O)[C@H](CO)NC(=O)[C@H](C)NC(=O)CC[C@H](NC(=O)CCCCCCCCCCCCCCCCCCC(=O)O)C(=O)O)[C@@H](C)O)C(=O)NCC(=O)N[C@@H](CCCNC(=N)N)C(=O)N[C@@H](CC(C)C)C(=O)N[C@@H](CO)C(=O)N[C@@H](C)C(=O)N[C@@H](CCC(=O)O)C(=O)N[C@@H](CC(C)C)C(=O)N[C@@H](Cc1c[nH]cn1)C(=O)N[C@@H](CCC(=O)O)C(=O)N[C@@H](CC(C)C)C(=O)N[C@@H](C)C(=O)N[C@H](C(=O)N[C@@H](Cc1ccc(O)cc1)C(=O)N1CCC[C@H]1C(=O)N[C@@H](CCCNC(=N)N)C(=O)N[C@H](C(=O)N[C@@H](CCC(=O)O)C(=O)N[C@H](C(=O)NCC(=O)N[C@@H](CO)C(=O)NCC(=O)N[C@@H](C)C(=O)N1CCC[C@H]1C(N)=O)[C@@H](C)O)[C@@H](C)O)[C@@H](C)O, also called Ex. #81) [[N-terminal(C20 diacid-gGlu), des1, 23Y, 30S, 31G, 32A]mimylin]
2.94 nM | {C20 diacid-γGlu}-ASELSTATLGRLSAELHELSTYPRTETGSGSP-NH2 (SMILES CC(C)C[C@H](NC(=O)[C@H](CCCNC(=N)N)NC(=O)CNC(=O)[C@H](CC(C)C)NC(=O)[C@@H](NC(=O)[C@H](C)NC(=O)[C@@H](NC(=O)[C@H](CO)NC(=O)[C@H](CC(C)C)NC(=O)[C@H](CCC(=O)O)NC(=O)[C@H](CO)NC(=O)[C@H](C)NC(=O)CC[C@H](NC(=O)CCCCCCCCCCCCCCCCCCC(=O)O)C(=O)O)[C@@H](C)O)[C@@H](C)O)C(=O)N[C@@H](CO)C(=O)N[C@@H](C)C(=O)N[C@@H](CCC(=O)O)C(=O)N[C@@H](CC(C)C)C(=O)N[C@@H](Cc1c[nH]cn1)C(=O)N[C@@H](CCC(=O)O)C(=O)N[C@@H](CC(C)C)C(=O)N[C@@H](CO)C(=O)N[C@H](C(=O)N[C@@H](Cc1ccc(O)cc1)C(=O)N1CCC[C@H]1C(=O)N[C@@H](CCCNC(=N)N)C(=O)N[C@H](C(=O)N[C@@H](CCC(=O)O)C(=O)N[C@H](C(=O)NCC(=O)N[C@@H](CO)C(=O)NCC(=O)N[C@@H](CO)C(=O)N1CCC[C@H]1C(N)=O)[C@@H](C)O)[C@@H](C)O)[C@@H](C)O, also called Ex. #92) [[N-terminal(C20 diacid-gGlu), des1, 9T, 21S, 23Y, 30S, 31G]mimylin]
0.628 nM | {C20 diacid-γGlu}-ASELSTAALGKLSAELHELATYPKTETGSGSY-NH2 (SMILES CC(C)C[C@H](NC(=O)[C@H](C)NC(=O)[C@H](C)NC(=O)[C@@H](NC(=O)[C@H](CO)NC(=O)[C@H](CC(C)C)NC(=O)[C@H](CCC(=O)O)NC(=O)[C@H](CO)NC(=O)[C@H](C)NC(=O)CC[C@H](NC(=O)CCCCCCCCCCCCCCCCCCC(=O)O)C(=O)O)[C@@H](C)O)C(=O)NCC(=O)N[C@@H](CCCCN)C(=O)N[C@@H](CC(C)C)C(=O)N[C@@H](CO)C(=O)N[C@@H](C)C(=O)N[C@@H](CCC(=O)O)C(=O)N[C@@H](CC(C)C)C(=O)N[C@@H](Cc1c[nH]cn1)C(=O)N[C@@H](CCC(=O)O)C(=O)N[C@@H](CC(C)C)C(=O)N[C@@H](C)C(=O)N[C@H](C(=O)N[C@@H](Cc1ccc(O)cc1)C(=O)N1CCC[C@H]1C(=O)N[C@@H](CCCCN)C(=O)N[C@H](C(=O)N[C@@H](CCC(=O)O)C(=O)N[C@H](C(=O)NCC(=O)N[C@@H](CO)C(=O)NCC(=O)N[C@@H](CO)C(=O)N[C@@H](Cc1ccc(O)cc1)C(N)=O)[C@@H](C)O)[C@@H](C)O)[C@@H](C)O, also called Ex. #101) [[N-terminal(C20 diacid-gGlu), des1, 12K, 23Y, 25K, 30S, 31G, 33Y]mimylin]
0.442 nM | {C20 diacid-γGlu}-ASELSTAALGRLSAELHELATLPHTETGSGSP-NH2 (SMILES CC(C)C[C@H](NC(=O)[C@H](C)NC(=O)[C@H](C)NC(=O)[C@@H](NC(=O)[C@H](CO)NC(=O)[C@H](CC(C)C)NC(=O)[C@H](CCC(=O)O)NC(=O)[C@H](CO)NC(=O)[C@H](C)NC(=O)CC[C@H](NC(=O)CCCCCCCCCCCCCCCCCCC(=O)O)C(=O)O)[C@@H](C)O)C(=O)NCC(=O)N[C@@H](CCCNC(=N)N)C(=O)N[C@@H](CC(C)C)C(=O)N[C@@H](CO)C(=O)N[C@@H](C)C(=O)N[C@@H](CCC(=O)O)C(=O)N[C@@H](CC(C)C)C(=O)N[C@@H](Cc1c[nH]cn1)C(=O)N[C@@H](CCC(=O)O)C(=O)N[C@@H](CC(C)C)C(=O)N[C@@H](C)C(=O)N[C@H](C(=O)N[C@@H](CC(C)C)C(=O)N1CCC[C@H]1C(=O)N[C@@H](Cc1c[nH]cn1)C(=O)N[C@H](C(=O)N[C@@H](CCC(=O)O)C(=O)N[C@H](C(=O)NCC(=O)N[C@@H](CO)C(=O)NCC(=O)N[C@@H](CO)C(=O)N1CCC[C@H]1C(N)=O)[C@@H](C)O)[C@@H](C)O)[C@@H](C)O, also called Ex. #73) [[N-terminal(C20 diacid-gGlu), des1, 25H, 30S, 31G]mimylin]
